Laboratory results reported in patent US11702475B2, “Cysteine engineered fibronectin type III domain binding molecules” (Janssen Biotech, Inc., priority 2013, dated 2023).
Positions count from the first letter of the chain named. Names and notes keep the numbering of the source.

Tests used:
[1] = Differential scanning calorimetry in PBS of FN3 domains; assay type: physicochemical; conditions: DSC in PBS; for Thermal Stability (Tm): c-Met-binding FN3 domains; for Tm: EGFR-binding FN3 domains and stabilised mutants
Source text: A subset of the EGFR binding FN3 domains was engineered to increase the conformational stability of each molecule. The mutations L17A, N46V, and E86I (described in US Pat. Publ. No. 2011/0274623) were incorporated into clones P54AR4-83, P54CR4-31, and P54AR4-37 by DNA synthesis. […] Differential scanning calorimetry in PBS was used to assess the stability of each mutant in order to compare it to that of the corresponding parent molecule.
Thermal Stability of c-Met-Binding FN3 Domains Differential scanning calorimetry in PBS was used to assess the stability of each FN3 domain.

[2] = system: EGFR-overexpressing human tumor cell line H1573; experiment: Cytotoxicity assay in H1573 cells; assay type: cell-based; conditions: cysteine variants conjugated to VC-MMAF, Cell TiterGlo at 70 hours, read-out: IC50
Description: Cell killing was assessed by measuring viability of the EGFR-overexpressing human tumor cell line H1573 following exposure to the cysteine variant-cytotoxin conjugates. Cells were plated in black-well, clear bottomed, tissue culture-treated plates (Falcon 353219) at 7000/well in 100 μL/well of phenol red free RPMI media (Gibco 11835-030) with 5% fetal bovine serum (Gibco). Cells were allowed to attach overnight at 37° C. in a humidified 5% CO2 atmosphere. Medium was aspirated from 96-well plate and cells were treated with 50 uL of fresh media and 50 uL of 2× inhibitor made up in fresh media. Cell viability was determined by an endpoint assay with Cell TiterGlo (Promega) at 70 hours. IC50 values were determined by fitting data to the equation for a sigmoidal dose response with variable slope using GraphPad Prism 5 (GraphPad Software). Table 11 reports IC50 values obtained from analysis of the CellTiter Glo data.
Conjugates consisting of ECB147 cysteine variants, 83v2-cys, or Tencon-cys linked to a cytotoxic tubulin inhibitor from the auristatin family (FIG. 2) were tested for target-dependent cytotoxicity in cancer cells. The inhibitor was linked to the cysteine-containing protein via a non-cleavable PEG4 linker or an enzyme-cleavable valine-citrulline or valine-lysine linker. Cell killing was assessed by measuring viability of the EGFR-overexpressing human tumor cell lines H1573 and A431 as well as the EGFR-negative tumor cell line MDA-MB-435 following exposure to the protein-cytotoxin conjugates using the procedure described in Example 4.

[3] = Analytical size exclusion chromatography (percent monomer); assay type: physicochemical; conditions: NEM-conjugated cysteine variants; SEC, Abs280 monomer region 5.5-6 minutes vs oligomer region 4-5.3 minutes
Summary of the method: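 Purified FN3 domains were run on a Superdex 75 5/150 column in PBS pH 7.4 at 0.3 mL/min with A280 detection. Percent monomer came from integrating the monomer peak (5.5–6 min) against oligomer peaks (4–5.3 min).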

[4] = Thermal stability of cysteine-NEM conjugates by DSC; assay type: physicochemical; conditions: for First Scan Tm: DSC 25-100 °C, 1 °C per minute; for Second Scan Tm: second identical scan
Summary of the method: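 Cysteine-NEM conjugates heated from 25 °C to 100 °C at 1 °C/min by DSC, with a repeat scan to check reversibility of unfolding. Melting temperature derived by fitting to a 2-state unfolding model.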

B1: P114AR7P92-G8: c-Met-binding FN3 domain, SEQ ID NO: 36 (protein)
chain: LPAPKNLVVSRVTEDSARLSWTAPDAAFDSFVIRYFEFLGSGEAIVLTVPGSERSYDLTGLKPGTEYVVQILGVKGGYISIPLSAIFTT
modifications: c-Met binding FN3 domain
[1]
  Thermal Stability (Tm): 90.9 C.

B2: P114AR7P92-H5: c-Met-binding FN3 domain, SEQ ID NO: 37 (protein)
chain: B1 chain with V32W, F36L, G40L, S41G, L72M, Y78T, I79V, I81P
modifications: c-Met binding FN3 domain
[1]
  Thermal Stability (Tm): 87 C.

B3: P114AR5P74-A5: c-Met-binding FN3 domain, SEQ ID NO: 32 (protein)
chain: B1 chain with V32W, F36D, F38V, L39V, G40V, S41G, V68Y, Q70N, Y78S, I81V
modifications: c-Met binding FN3 domain
[1]
  Thermal Stability (Tm): 74.1 C.

B4: P114AR7P92-F6: c-Met-binding FN3 domain, SEQ ID NO: 35 (protein)
chain: B1 chain with V32W, Q70N, Y78G, I79L, I81V
modifications: c-Met binding FN3 domain
[1]
  Thermal Stability (Tm): 76.8 C.

B5: P114AR7P94-E5: c-Met-binding FN3 domain, SEQ ID NO: 42 (protein)
chain: B1 chain with V32W, V68A, Q70N, L72M, Y78R, I79V, I81V
modifications: c-Met binding FN3 domain
[1]
  Thermal Stability (Tm): 80 C.

B6: P114AR7P95-F10: c-Met-binding FN3 domain, SEQ ID NO: 47 (protein)
chain: B1 chain with V32W, L39T, G40T, S41A, Q70N, L72M, Y78S, I81P
modifications: c-Met binding FN3 domain
[1]
  Thermal Stability (Tm): 85.2 C.

B7: P114AR7P95-H8: c-Met-binding FN3 domain, SEQ ID NO: 49 (protein)
chain: B1 chain with V32W, L39V, G40S, S41K, Q70N, L72M, Y78S, I81P
modifications: c-Met binding FN3 domain
[1]
  Thermal Stability (Tm): 83 C.

B8: P114AR7P93-H9: c-Met-binding FN3 domain, SEQ ID NO: 40 (protein)
chain: B1 chain with V32W, L72I, Y78H, I81L
modifications: c-Met binding FN3 domain
[1]
  Thermal Stability (Tm): 88.2 C.

B9: P114AR7P94-A3: c-Met-binding FN3 domain, SEQ ID NO: 41 (protein)
chain: B1 chain with V32W, Q70N, L72M, Y78K, I81P
modifications: c-Met binding FN3 domain
[1]
  Thermal Stability (Tm): 86.2 C.

B10: P114AR7P95-G7: c-Met-binding FN3 domain, SEQ ID NO: 48 (protein)
chain: B1 chain with V32W, F38L, G40S, S41T, Q70N, L72M, Y78S, I81P
modifications: c-Met binding FN3 domain
[1]
  Thermal Stability (Tm): 87.2 C.

B11: P114AR7P93-G8: c-Met-binding FN3 domain, SEQ ID NO: 39 (protein)
chain: B1 chain with V32W, G60D, V68G, Q70T, L72N, Y78R, I79V, I81T
modifications: c-Met binding FN3 domain
[1]
  Thermal Stability (Tm): 76.8 C.

B12: P114AR7P95-D4: c-Met-binding FN3 domain, SEQ ID NO: 45 (protein)
chain: B1 chain with V32W
modifications: c-Met binding FN3 domain
[1]
  Thermal Stability (Tm): 85.3 C.

B13: P54CR4-31: EGFR-binding FN3 domain, SEQ ID NO: 26 (protein)
chain: LPAPKNLVVSEVTEDSLRLSWTAPDAAFDSFLIQYQESEKVGEAINLTVPGSERSYDLTGLKPGTEYTVSIYGVLGSYVFEHDVMLPLSAEFTT
modifications: EGFR binding FN3 domain
[1]
  Tm: 60.9 °C

B14: P54CR4-31v2: P54CR4-31 with mutations L17A, N46V, E86I; SEQ ID NO: 28 (protein)
chain: B13 chain with L17A, N46V, E91I
modifications: EGFR binding FN3 domain
[1]
  Tm: 78.9 °C

B15: L88C: cysteine variant of P54AR4-83v2 (SEQ ID NOS: 212 and 250); NEM and VC-MMAF conjugates (conjugate)
chain: MLPAPKNLVVSEVTEDSARLSWDDPWAFYESFLIQYQESEKVGEAIVLTVPGSERSYDLTGLKPGTEYTVSIYGVHNVYKDTNMRGLPCSAIFTT
modifications: NEM or vcMMAF conjugate; EGFR binding FN3 domain
notes: NEM and VC-MMAF conjugates
[2]
  IC50: 0.81 nM
[3]
  Percent monomer: 98%
[4]
  First Scan Tm: 70 °C
  Second Scan Tm: 70 °C

B16: I91C: cysteine variant of P54AR4-83v2 (SEQ ID NOS: 215 and 253); NEM and VC-MMAF conjugates (conjugate)
chain: B15 chain with C89L, I92C
modifications: NEM or vcMMAF conjugate; EGFR binding FN3 domain
notes: NEM and VC-MMAF conjugates
[2]
  IC50: 0.54 nM
[3]
  Percent monomer: 100%
[4]
  First Scan Tm: 70 °C
  Second Scan Tm: 69 °C

B17: S89C: cysteine variant of P54AR4-83v2 (SEQ ID NOS: 213 and 251); NEM and VC-MMAF conjugates (conjugate)
chain: B15 chain with C89L, S90C
modifications: NEM or vcMMAF conjugate; EGFR binding FN3 domain
notes: NEM and VC-MMAF conjugates
[2]
  IC50: 0.94 nM
[3]
  Percent monomer: 96%
[4]
  First Scan Tm: 72 °C
  Second Scan Tm: 71 °C

B18: A90C: cysteine variant of P54AR4-83v2 (SEQ ID NOS: 214 and 252); NEM and VC-MMAF conjugates (conjugate)
chain: B15 chain with C89L, A91C
modifications: NEM or vcMMAF conjugate; EGFR binding FN3 domain
notes: NEM and VC-MMAF conjugates
[2]
  IC50: 1 nM
[3]
  Percent monomer: 100%
[4]
  First Scan Tm: 67 °C
  Second Scan Tm: 67 °C

B19: P54AR4-83: EGFR-binding FN3 domain, SEQ ID NO: 25 (protein)
chain: LPAPKNLVVSEVTEDSLRLSWDDPWAFYESFLIQYQESEKVGEAINLTVPGSERSYDLTGLKPGTEYTVSIYGVHNVYKDTNMRGLPLSAEFTT
modifications: EGFR binding FN3 domain
[1]
  Tm: 50.6 °C

B20: P54AR4-37: EGFR-binding FN3 domain, printed SEQ ID NO: 22 (that of P54AR4-73) (protein)
chain: B19 chain with D22T, D23W, W25Y, F27D, Y28L, E29D
modifications: left off: small tags and cut ends
[1]
  Tm: 45.9 °C

B21: P54AR4-37v2: P54AR4-37 with mutations L17A, N46V, E86I; SEQ ID NO: 29 (protein)
chain: B19 chain with D22T, D23W, W25Y, F27D, Y28L, E29D
modifications: EGFR binding FN3 domain
[1]
  Tm: 64.2 °C
